± gives the standard deviation.
Assay: protein stability index of a GFP-peptide fusion (GPS, HEK-293T) (PSI 1-6); higher = more stable
[1] = treatment: DMSO, c terminus: a fixed tail appended
[2] = treatment: MLN4924 1 uM, 8 h, c terminus: a fixed tail appended
[3] = treatment: DMSO, c terminus: native
[4] = treatment: MLN4924 1 uM, 8 h, c terminus: native
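Note: 24-mer peptide tiles fused after GFP, lentivirally expressed, FACS-sorted into six equal bins by GFP/DsRed ratio, decoded by Illumina sequencing, PSI is the read-weighted mean bin number.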

| Sequence | protein stability index [1] | protein stability index [2] | protein stability index [3] | protein stability index [4] |
| --- | --- | --- | --- | --- |
| PARDYVVLRTWRTNLPKGACALLL [DLC1] | 2.47 ± 1.3 | 2.22 ± 0.4 |  |  |
| PDHFDTAILFTRQDLCGVSTCDTL [ADAMTS4] | 2.83 ± 0.21 | 2.94 ± 0.4 |  |  |
| PDPSVWSRRYTEMALPFFSLAEVR [MYORG] | 2.52 ± 0.31 | 2.45 ± 0.13 |  |  |
| PDTGDNARLTYSIVGNQVQGAPAS [PCDHGC5] | 4.42 ± 0.37 | 4.52 ± 0.52 |  |  |
| PEFDYLKSLEIEEKINKIKWLPQQ [PPP2R2C] | 3.52 ± 0.23 | 3.58 ± 0.2 |  |  |
| PERRRSPGPAPGSPGELEEDLLLP [WEE1] | 5.33 ± 0.28 | 5.37 ± 0.38 |  |  |
| PETFWIQRAPQLPTWWPLPTQVPA [SPAG8] | 2.42 ± 0.19 | 2.52 ± 0.15 |  |  |
| PETLTNLRKGYLFMYNLVQFLGFS [HACD3] | 2.34 ± 0.56 | 2.04 ± 0.34 |  |  |
| PGDPSKDRAAKRLSLESEGAGEGA [TPPP] | 5.47 ± 0.22 | 5.33 ± 0.38 |  |  |
| PGEDENPEKASELSQVELQAAPGA [TRIM55] | 5.56 ± 0.27 | 5.72 ± 0.2 |  |  |
| PGPDTGPDSELSPCIPPGFRNLVA [SPAG8] | 3.79 ± 0.27 | 3.94 ± 0.17 |  |  |
| PHAMTIQELVDYVNARQKQGIYEE [PTPN9] | 3.23 ± 0.21 | 3.25 ± 0.41 |  |  |
| PHTPQTPGQGGPASTPAQTAAGGQ [NR2F2] | 5.3 ± 0.18 | 5.27 ± 0.23 |  |  |
| PHVIVSTTGPNPFTTLTDRELEEY [ADD1] | 4.83 ± 0.17 | 4.91 ± 0.091 |  |  |
| PIPVVFVLRHFHLLSDGSNTLSVS [SLC6A17] | 2.83 ± 0.81 | 2.84 ± 0.47 |  |  |
| PKRMPSGRGGRDRFTAESYTVLGD [FSD1] | 4.11 ± 0.33 | 4.3 ± 0.22 |  |  |
| PLCMLLLIDHLALRARNYEYLIRL [TCF25] | 3.43 ± 1.1 | 2.92 ± 0.55 |  |  |
| PLHLAAQRGHYRVARILIDLCSDV [RIPK4] | 2.42 ± 0.44 | 2.31 ± 0.19 |  |  |
| PLHLSALRDDVLCARMLYNYGADT [ASB7] | 2.27 ± 0.15 | 2.48 ± 0.38 |  |  |
| PLHVHEEEGILVAVGQDCYTRIWS [DCAF4] | 2.67 ± 0.3 | 2.74 ± 0.43 |  |  |
| PLQLLREMRQALQALLKENRLLQE [CBY2] | 2.93 ± 0.28 | 3.4 ± 0.51 |  |  |
| PLSPIQASSVHLKSESSLPHQTSK | 5.02 ± 0.19 | 5.05 ± 0.088 |  |  |
| PLTGFLTTVPDGPTQLRALNLTEG [TNXB] | 3.81 ± 0.26 | 3.55 ± 0.22 |  |  |

| Sequence | protein stability index [1] | protein stability index [2] | protein stability index [3] | protein stability index [4] |
| --- | --- | --- | --- | --- |
| PPAELKAEPGFEPADCKRKEEAGA [CEBPB] | 5.55 ± 0.23 | 5.68 ± 0.13 |  |  |
| PPDRTLGCWATDAAPAAGLCGAGS [RSPH3] | 3.79 ± 0.15 | 3.71 ± 0.32 |  |  |
| PPETTETPKCSSPRGQEGSRQDKP [YJU2B] | 5.5 ± 0.36 | 5.54 ± 0.26 |  |  |
| PPLPLHPGGDQGGPPVGPLSLGLA [WAS] | 4.26 ± 0.25 | 4.45 ± 0.15 |  |  |
| PPMTQAQAVSAPGILNRPPAPTAT [ZNF207] | 5.01 ± 0.18 | 5.09 ± 0.21 |  |  |
| PPPARGRGAPPPPPSRAPTAAPPP [WASL] | 5.26 ± 0.11 | 5.14 ± 0.21 |  |  |
| PPPGSLSRTQEPSLGKQKVFIIRK [SOAT2] | 3.51 ± 0.17 | 3.73 ± 0.17 |  |  |
| PPTSGCLGPVPREDQAEAWGCSCC [TSPAN10] | 4.8 ± 0.3 | 4.74 ± 0.24 |  |  |
| PQDYKKRLSVELTSSLFRTEPMAW [CTNNB1] | 2.67 ± 0.24 | 2.8 ± 0.21 |  |  |
| PQFLHEGLSKPVYVINWFMSFGPE [FAM104B] | 2.68 ± 0.71 | 2.97 ± 1.2 |  |  |
| PQGPPASPSCPEEALAATWEQPWA [PXN] | 4.15 ± 0.39 | 3.96 ± 0.27 |  |  |
| PQPPDAPQLVSSAREGSSEPWLPL [PLEKHN1] | 4.36 ± 0.25 | 4.56 ± 0.1 |  |  |
| PQQPVMFAQPMMRPPFGAAAVPGT [SNAP91] | 3.75 ± 0.16 | 3.76 ± 0.3 |  |  |
| PQTPEPVEGRKHVDVQTELYLEEI [RSPH3] | 3.78 ± 0.24 | 4 ± 0.58 |  |  |
| PREDGASVNDQCGFGVLRLDADAA [TSPAN10] | 4.38 ± 0.31 | 4.15 ± 0.17 |  |  |
| PRLQQLLKTLEEGLEGLEDAPPVE [FANCE] | 4.41 ± 0.16 | 4.34 ± 0.3 |  |  |
| PRNADKIRVKIADLGNACWVHKHF [SRPK2] | 2.26 ± 0.12 | 2.42 ± 1.3 |  |  |
| PRPGTGQSRSFRILAHLTGTEFMQ [PDLIM7] | 2.47 ± 0.046 | 2.83 ± 0.27 |  |  |
| PSALVPSVTEYRLDGHTISDLSRS [MYBL2] | 4.25 ± 0.2 | 4.25 ± 0.39 |  |  |
| PSCLACNRQCLCSAESMVEYGTCM [SPRY1] | 2.84 ± 0.58 | 2.84 ± 0.48 |  |  |
| PSEICDRLVNEYVELVNAACNFEP [ZER1] | 3.15 ± 0.3 | 3.17 ± 0.23 |  |  |
| PTPVGAVQQDPALSSNREAHQHRD [CSNK1G3] | 5.37 ± 0.21 | 5.41 ± 0.19 |  |  |
| PVIPAAALAGYTGSGPIQLWQFLL [ETS1] | 2.68 ± 0.26 | 2.68 ± 0.28 |  |  |

| Sequence | protein stability index [1] | protein stability index [2] | protein stability index [3] | protein stability index [4] |
| --- | --- | --- | --- | --- |
| PVLGRRAVGGRLRLVPGGQRPADV [HAGHL] | 3.64 ± 0.17 | 3.88 ± 0.36 |  |  |
| PVMDVWARKQDMNTKRAIHTLAVM [KLHL14] | 2.34 ± 0.1 | 2.33 ± 0.17 |  |  |
| PVTCCDVSSNNRLVVTGSGEHASV [TLE6] | 4.19 ± 0.22 | 4.37 ± 0.16 |  |  |
| QAGDKDLDGQLDFEEFVHYLQDHE [SLC25A25] | 5.19 ± 0.23 | 4.96 ± 0.23 |  |  |
| QALKRKKRFEKQLTQIDGTLSTIE [CHMP4C] | 4.05 ± 0.18 | 3.96 ± 0.23 |  |  |
| QAQPGEATSGPPGIQPGQEPPVTM [PALM] | 5.6 ± 0.19 | 5.33 ± 0.24 |  |  |
| QARLRDVSRREGALGWAPAAPPPL [ZBED3] | 3.44 ± 0.41 | 3.6 ± 0.35 |  |  |
| QCDHCERCFYTRKDVRRHLVVHTG [PLAGL1] | 2.91 ± 0.074 | 3.19 ± 0.27 |  |  |
| QDELRNRSVKVICLGSLASKLSRK [FAN1] | 2.96 ± 0.32 | 3.17 ± 0.36 |  |  |
| QDEVPDEVENQFILRLPLEHACTV [TAF7L] | 4.395 ± 0.043 | 4.47 ± 0.13 |  |  |
| QDLVELYLTNCEKLSAKSLQTLRS [ZER1] | 2.1 ± 0.2 | 2.54 ± 0.21 |  |  |
| QDQGYKTLRLRENCVLSSSPNPFP [ZNF8] | 3.25 ± 0.11 | 3.43 ± 0.22 |  |  |
| QDSTRTVGERLQDTHSWKSELQRE [TEKT4] | 4.88 ± 0.36 | 4.96 ± 0.27 |  |  |
| QEFSDVERAIETLIKNFHQYSVEG [S100A14] | 2.33 ± 0.33 | 2.59 ± 0.43 |  |  |
| QEKARQLLGRLKPSHTSRTLILS [MYBL2] |  |  | 2.12 ± 0.29 | 2.32 ± 0.042 |
| QEQLLECNKLCGRGQSRQLSPET [SLC2A12] |  |  | 4.21 ± 0.43 | 4.61 ± 0.46 |
| QFHCHKAVLASCSQYFRSLFSSHP [KLHL14] | 2.95 ± 0.43 | 2.81 ± 0.4 |  |  |
| QFLDIGPDVTRVGLLQYGSTVKNE [MATN2] | 3.55 ± 0.14 | 3.65 ± 0.45 |  |  |
| QFSRGDFVVEYHGDLIEITDAKKR [KMT5A] | 4.13 ± 0.93 | 4.15 ± 0.059 |  |  |
| QGQYETIERLRSLSPKIMQEAFLV [TBC1D10A] | 2.32 ± 0.21 | 2.22 ± 0.27 |  |  |
| QGSAVTLKTSKMALSPSATAKRIN [CDC14A] | 4.22 ± 0.25 | 4.44 ± 0.18 |  |  |
| QGYTINVPWNQVGMRDADYIAAFL [HDAC6] | 2.25 ± 0.22 | 2.46 ± 0.37 |  |  |
| QHGFFRRTADEATNTGPAGSSAST [DYRK1B] | 5.02 ± 0.19 | 4.93 ± 0.16 |  |  |

| Sequence | protein stability index [1] | protein stability index [2] | protein stability index [3] | protein stability index [4] |
| --- | --- | --- | --- | --- |
| QHGLVLRDLKLCRFVFADRERKKL [TRIB3] | 2.38 ± 0.12 | 2.55 ± 0.18 |  |  |
| QHIDNITQIEDATEKLKANAESSK [TRIM14] | 5.46 ± 0.065 | 5.33 ± 0.39 |  |  |
| QIMQGLEHPFLVNLWYSFQDEEDM [STK32A] | 2.19 ± 0.37 | 2.37 ± 0.36 |  |  |
| QKTSGQHMIQGAGSLEKALPIIQS [DLC1] | 3.86 ± 0.26 | 4.18 ± 0.097 |  |  |
| QKYKLFQQQQLTFTAALEHCRENA [SPACA9] | 2.86 ± 0.24 | 3.12 ± 0.29 |  |  |
| QLDMFYRNWALKESFIKAIGVGLG [AASDHPPT] | 2.78 ± 0.1 | 2.92 ± 0.58 |  |  |
| QLKRQKRDYIHSLKLLNVLEEYIT [FAM9B] | 2.28 ± 0.55 | 2.56 ± 0.42 |  |  |
| QLQKILSIPQSSLEPLKAIIQYRL [ACSBG2] | 2.78 ± 0.86 | 2.36 ± 0.25 |  |  |
| QLQRSWVKMDQKSKHLKEMYQELM [TRIM43] | 2.36 ± 0.4 | 2.55 ± 0.75 |  |  |
| QLSSFGSVDWLSQSSCSGPTHTPR [VENTX] | 3.48 ± 0.3 | 3.69 ± 0.29 |  |  |
| QMPQGNPLLLSHTLQELLARDTVQ [SNX8] | 3.23 ± 0.086 | 3.15 ± 0.27 |  |  |
| QMQEDNSSFSLLLDLLSELYQKQP [INTS3] | 2.38 ± 0.16 | 2.37 ± 0.31 |  |  |
| QNQNITLDCEGTTNKMKSPETKQR [KMT2E] | 5.37 ± 0.12 | 5.3 ± 0.12 |  |  |
| QPWHAVMDIESLSVFTEPNRHFYR [FBXO33] | 2.26 ± 0.18 | 2.11 ± 0.13 |  |  |
| QQAVEQIAKAEETHSSLSQELQAR [CCDC89] | 5.2 ± 0.25 | 5.23 ± 0.28 |  |  |
| QQHAEGSPEPGTPAAPTPESFTVH [DNAAF3] | 5.17 ± 0.24 | 5.27 ± 0.43 |  |  |
| QQSPAAVSMETYHVTLTLPPTQLE [C2CD2L] | 3.37 ± 0.35 | 3.48 ± 0.35 |  |  |
| QRLEEETRKREDAEHNLVLFRKDV [PRPH] | 5.12 ± 0.18 | 5.13 ± 0.17 |  |  |
| QRLKAVIVIQTYYRQWHAKIFVEN [IQUB] | 2.83 ± 0.5 | 2.79 ± 0.79 |  |  |
| QRRASTVSSVTQVEVDENAYRCGS [NET1] | 5.01 ± 0.45 | 5.02 ± 0.2 |  |  |

— the supplement of paper PMC10567573
